The values below are quoted from earlier work in paper PMC8969216.

The target of this series is SLAMF1 (Homo sapiens) (UniProt Q13291).

In the case of SLAMF1 (from UniProt Q13291), the dissociation constant (Kd) is 200 µM.
